Biological target: T1, FLAG-hPSMA, extracellular domain protein of hPSMA with a FLAG-tag at the N-terminus (human, UniProt Q04609 44-750)
T1 construct: also called FLAG-PSMA; soluble hPSMA antigen
Experiment: phage ELISA, scFv phage clone on immobilized FLAG-PSMA
Method: The concentrated phage was monocloned and clones having the affinity to FLAG-PSMA were selected by ELISA. In ELISA, MAXISORP STARTUBE (manufactured by NUNC) in which the FLAG-PSMA of Example 5 described below was immobilized thereon, and a site not bound by FLAG-PSMA was blocked by using SuperBlock Blockig Buffer (manufactured by Thermo Fisher Scientific Inc.) was used.
Each phage clone was added to each well and allowed to react at room temperature for 30 minutes, and then each well was washed three times with PBS containing 0.1% Tween 20 (hereinafter referred to as PBS-T). Subsequently, a solution in which horseradish peroxidase-labeled anti-M13 antibody (manufactured by GE Healthcare) was diluted 5000 times with PBS-T containing 10% Block Ace (manufactured by Dainippon Pharma Co., Ltd.) was added to each well by 50 μL and incubated at room temperature for 30 minutes.

T1 sequence (Q04609 other isoform, or with tags, fused parts or gaps): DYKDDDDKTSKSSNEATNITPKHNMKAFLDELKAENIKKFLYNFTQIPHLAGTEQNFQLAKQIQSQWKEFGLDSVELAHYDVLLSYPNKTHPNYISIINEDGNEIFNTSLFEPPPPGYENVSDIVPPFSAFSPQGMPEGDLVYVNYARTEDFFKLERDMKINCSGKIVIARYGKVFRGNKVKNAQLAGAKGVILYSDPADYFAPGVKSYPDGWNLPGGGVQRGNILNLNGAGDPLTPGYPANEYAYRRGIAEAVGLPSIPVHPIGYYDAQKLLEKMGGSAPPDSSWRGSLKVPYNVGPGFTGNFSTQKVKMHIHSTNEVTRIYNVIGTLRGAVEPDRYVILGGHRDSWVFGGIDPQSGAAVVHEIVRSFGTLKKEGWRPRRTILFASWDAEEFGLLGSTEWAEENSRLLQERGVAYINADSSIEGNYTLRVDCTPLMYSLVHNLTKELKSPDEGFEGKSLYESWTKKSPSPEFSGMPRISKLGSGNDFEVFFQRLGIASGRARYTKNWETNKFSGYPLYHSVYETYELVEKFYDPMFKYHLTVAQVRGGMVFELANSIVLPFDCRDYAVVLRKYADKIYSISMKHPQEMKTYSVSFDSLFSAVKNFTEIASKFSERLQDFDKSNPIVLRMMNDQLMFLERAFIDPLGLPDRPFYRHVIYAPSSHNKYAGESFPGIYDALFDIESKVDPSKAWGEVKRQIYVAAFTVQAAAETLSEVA

B1: PI134 phage clone (scFv displayed on M13 phage) (scFv, V domains shown)
VH: QVQLVQSGAEVKKPGASVKVSCKASGYTFTTYDINWVRQATGQGLEWMGWMNPNNGYTGYAQKFQGRVTMTRNTSISTAYMELSSLRSEDTAVYYCARTNWVYWYFDLWGRGTLVTVSS
VL: EIVLTQSPATLSLSPGERATLSCRASQSVSSFLAWYQQKPGQAPRLLIYDASNRATGIPARFSGSGSGTDFTLTISSLEPEDFAVYYCQQRSNWPLTFGPGTKVDIKR
notes: Tested as an scFv on M13 phage (phagemid pCANTAB 5E)
binding result: binds

B2: PL223 phage clone (scFv displayed on M13 phage) (scFv, V domains shown)
VH: EVQLVQSGAEVKKPGASVKVSCKASGYTFTTYDINWVRQATGQGLEWMGWMNPNNGYTGYAQKFQGRVTMTRNTSISTAYMELSSLRSEDTAVYYCARTNWVYWYFDLWGRGTMVTVSS
VL: EIVLTQSPATLSLSPGERATLSCRASQSVSSFLAWYQQKPGQAPRLLIYDASNRATGIPARFSGSGSGTDFTLTISSLEPEDFAVYYCQQRSNWPLTFGPGTKVDIKR
notes: as for B1
binding result: binds

B3: PI127 phage clone (scFv displayed on M13 phage) (scFv, V domains shown)
VH: QVQLVQSGAEVKKPGASVKVSCKASGYTFTTYDINWVRQATGQGLEWLGWMNPNNGYTGYAQKFQGRVTMTRNTSIGTAYMELNSLRSEDTAVYYCARTNWVYWYFDLWGRGTLVTVSS
VL: EIVLTQSPATLSLSPGERATLSCRASQSVSSFLAWYQQKPGQAPRLLIYDASNRATGIPARFSGSGSGTDFTLTISSLEPEDFAVYYCQQRSNWPLTFGPGTKVDIKR
notes: as for B1
binding result: binds

B4: PI118 phage clone (scFv displayed on M13 phage) (scFv, V domains shown)
VH: QVQLVQSGAEVKKPGASVKVSCKASGYNLTTYDINWVRQATGQGLEWMGWMNPNSGYTGYAQKFQGRVTMTRNTSIDTAYMELSNLRSEDTAVYYCARTNWVYWYFDLWGRGTLVTVSS
VL: EIVLTQSPATLSLSPGERATLSCRASQSVSSFLAWYQQKPGQAPRLLIYDASNRATGIPARFSGSGSGTDFTLTISSLEPEDFAVYYCQQRSNWPLTFGPGTKVDIKR
notes: as for B1
binding result: binds

B5: PI101 phage clone (scFv displayed on M13 phage) (scFv, V domains shown)
VH: EVQLVQSGAEVKKPGASVKVSCKASGYNLATYDINWVRQATGQGLEWMGWMNPNSGYTGYAQKFQGRVTMTRDTSINTAYMELSSLRSEDTAVYYCARTNWVYWYFDLWGRGTLVTVSS
VL: EIVLTQSPATLSLSPGERATLSCRASQSVSSFLAWYQQKPGQAPRLLIYDASNRATGIPARFSGSGSGTDFTLTISSLEPEDFAVYYCQQRSNWPLTFGPGTKVDIKR
notes: as for B1
binding result: binds

B6: PI108 phage clone (scFv displayed on M13 phage) (scFv, V domains shown)
VH: QVQLVQSGAEVKKPGASVKVSCKASGYTFTTYDINWVRQATGQGLEWMGWMNPNNGYTGYAQKFQGRVTMTRNTSISTAYMELTSLRSEDTAVYYCARTNWVYWYFDLWGRGTLVTVSS
VL: EIVLTQSPATLSLSPGERATLSCRASQSVSSFLAWYQQKPGQAPRLLIYDASNRATGIPARFSGSGSGTDFTLTISSLEPEDFAVYYCQQRSNWPLTFGPGTKVDIKR
notes: as for B1
binding result: binds

B7: PI143 phage clone (scFv displayed on M13 phage) (scFv, V domains shown)
VH: QVQLVQSGAEVKKPGASVKVSCKASGYTFTTYDINWVRQATGQGLEWMGWMNPNNGYTGYAQKFQGRVTMTRNTSISTAYMELSSLRSEDTAVYYCARTNWVYWYFDLWGRGTTVTVSS
VL: EIVLTQSPATLSLSPGERATLSCRASQSVSSFLAWYQQKPGQAPRLLIYDASNRATGIPARFSGSGSGTDFTLTISSLEPEDFAVYYCQQRSNWPLTFGPGTKVDIKR
notes: Tested as an scFv on M13 phage (phagemid pCANTAB 5E); also called P1143
binding result: binds

B8: PI115 phage clone (scFv displayed on M13 phage) (scFv, V domains shown)
VH: EVQLVQSGAEVKKPGASVKVSCKASGYTFTTYDINWVRQATGQGLEWMGWMNPNNGYTGYAQKFQGRVTMTRNTSISTAYMELSSLRSEDTAVYYCARTNWVYWYFDLWGRGTLVTVSS
VL: EIVLTQSPATLSLSPGERATLSCRASQSVSSFLAWYQQKPGQAPRLLIYDASNRATGIPARFSGSGSGTDFTLTISSLEPEDFAVYYCQQRSNWPLTFGPGTKVDIKR
notes: as for B1
binding result: binds

— patent publication US20180016346A1 (Kyowa Kirin, published 2018)
